To fix the notation:
B1: TPR 5TU (parent)
chain: GGAUCUUCUCGAUCUAACAAAAAAGACAAAUCUGCCACAAAGCUUGAGAGCAUCUUCGGAUGCAGAGGCGGCAGCCUUCGGUGGCGCGAUAGCGCCAACGUUCUCAACUAUGACACGCAAAACGCGUGCUCCGUUGAAUGGAGUUUAUCAUG

This sample holds only a part of the variants without activity.

The data set covers variants of B1. Nature of the data set: polymerase ribozyme fitness, log enrichment relative to wild type (log ratio); higher = more active; in vitro selection for triplet polymerase activity. The essentials:
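Libraries of mutants in each subunit of a heterodimeric triplet polymerase ribozyme were generated by PCR and transcribed. In triplicate, each went through one in vitro selection round: annealing with biotinylated primer, partner subunit and triplets; frozen incubation at −7 °C; gel excision of extended constructs; streptavidin-bead capture; RT-PCR. Fitness, taken from Illumina sequencing of input and output libraries, is the logarithm of a genotype's enrichment over wild-type enrichment, averaged across replicates with inverse-variance weights. The logarithm is base 2, and genotypes needed ≥10 input reads and ≥1 read per output to be kept.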
Turning to GGAUCUUCUCGAUCGAACAAAAAAGACAAAUCUGCCACAAAGCUUGAGAGCAUCUUCGGAUGCAGAGGCGGCAGCCUUCGGUGGCGCGAUAGCGCCAACGUUGUCAACUAUGACACGCAAAACGCGUGCUCCGUUGAAUGGAGUUUAUCAGG, the “polymerase ribozyme fitness (log ratio)” value is no more than -4.2.
On to GGAUCUUCUCGAUCGAACAAAAAAGACAAAUCUGCCACAAAGCUUGAGAGCAUCUUUCGAUGCAGAGGCGGCAGCAUUCGGUGGCGCGAUAGCGCCAACGUUCUCAACUAUGACACGCAAAACGCGUGCUCCGUUGAAUGGAGUUUAUCAUG, for which the “polymerase ribozyme fitness (log ratio)” value was -0.888.
Regarding GGAUCUUCUCGAUCUCACUAAAAAGACAAAUCUGCCACAAAGCUUGAGAGCAUCUUGGGAUGCAGAGGCGGCUGCCUUCGGUGGCGCGAUUGCGCCAACGUUCUCAACUAUGACACGCAAAACGCGUGCUCCGUUGAAUAGAGUAUAUCAUG, the “polymerase ribozyme fitness (log ratio)” value is no more than -4.2.
On to GGAUCUUCUCGAUCGAACAAAAAACACAAAUCUGCCACAACGCUUGAGAGCAUCGUCGGAUGCAGAGGCGGCAGCCUUCGGUGGCGCGAUAGCGCAAACGUUCUCAACUAUGACACGCAAAACGCGUGCUCCGUUGAACGGAGUUUAUCAUU, for which the “polymerase ribozyme fitness (log ratio)” value is no more than -4.2.
For the variant GGAUCUUCUCGAUCGAACAAAAAAGACAAAUCUGCCAUAAAGCUUGAGAGCAUCUUCGGAUGCAGAGGCGGCAGCCUUCGGUGGCGCGAUAGCGCCAACGUUCUCAACUAUGACACGCAAAACGCGUGCUCCGUUGAAUGGAGUUUAUCAUG, the “polymerase ribozyme fitness (log ratio)” value is -0.133.
Take GGAUCUUCUCGAUCUCACAACAAAGACAAAUCUGCCACAAAGCUUGAGAGCAUCUUCGGAAGCAGAGGCGGCAGCCUUCGGUGGCGCGAUAGCGCCAACGUUCUCAACUAUGACACGCAAAACGCGUGCUCCGUUGAAUGGAGUUUAUCAUG: the “polymerase ribozyme fitness (log ratio)” value was -1.52.
Turning to GGAUCUUCUCGAUCUCACAACAAAGACAAAUCUGCCACAAAGCUUGAGAACAUCUUCGGAUGCAGAGGCGGCAGCCUUCGGUGGUGCGAUAGCGCCAACGUUCUCAACUAUGACACGCAAAACGGGUGCUCCGUUGAAUGGAGUUUAUCAUG, the “polymerase ribozyme fitness (log ratio)” value is -2.99.
The same measure for GGAUCUUCUCGAUCGAACAAAAAAGACAAAUCUGCCACAAAGCUUGAGAGCAUCUUCGGAUGCAGAGGCGGCAGCCUUCGGUGGCGCGAUAUCGCCAACGUUCUCAACUAUGACACGCAAAACGCGUGCUCCGUUGAAUGGAGUUUAUCAUG: -0.561; for GGAUCUUCUCGAUCGAAAAAAAAAGACAAAUCUGCCACAAAGCUUGAGAGCAUAUUCGGAUGCAGAGGCGGCAGCCUUCGGUGGCGCGAUAGCACCAACGUUCUCAACUAUGACACCCAAAACGAGUGCUCCGUUGAAUGGAGUUUAUCAUG: -1.44.
In the case of GGAUCUUCUCGAUCGAACAAAAAAGACAAAUCUGCCACAAAGUUUGAGAGCAUCUUAGGAUGCAGAGGCGGCAGCCUUCGGUGGGGCGAUAGCGCCAACGUUCUCCACUAUGACACGCAAAACGCGUGCUCCGUUGAAUGGAGUUUAUCAUG, the “polymerase ribozyme fitness (log ratio)” value was no more than -4.2.
Turning to GGAUCUUCUCGAUCGAACAAAAAAGACAAAUCUGCCACAAAGCUUGAGAGCAUCUUCGGAUGCAGAGGCGGCAGCCUUCGGUGGCGCGAUAGCGCCAACGUUCUCAACUAUGACACGCAAAGCGCGUGCUCCGUUGAAUGGAGUUUAUCAUG, the “polymerase ribozyme fitness (log ratio)” value is -1.2.
With GGAUCUUCUCGAUCGAACAAAAAAGACAAAUCUGCCACAAAGCUUGAGAGCAUCUUCGGAUGCAGAGGCGGCAGCCUUCGGUGGAGCGAUAGCGCCAACGUUCUCAACUAUGACACGCAAAAUGCGUGCUCCGUUGAAUGGAGUUUAUCAUG, the “polymerase ribozyme fitness (log ratio)” value was -0.906.
The same measure for GGAUCUUCUCGAUCUCACCAAAAAGACAAAUCUGCCACAAAGCUUGAGAGCAUCUUCGGAUGCAGAGGCGGCAGCCUUCGGUGCCGCGAUAGCGCUAACGUUCUCAACUAUGACACGCAAAACGCCUGCUCCGUUGAAUGGAGUUUAUCAUG: -3.42; for GGAUCUUCUCGAUCGAACAAAAAAGACAAAUCUGCCACAAAGCUUGAGAGCAUCUUCGGAUGCAGAGGCGGUAGCCUUAGGUGGCGCGAUAGUUCAAACGUUCUCAACUAUGACACGCAAAACGCGUGCUCCGUUGAAUAGAGUUUAUCAUG: no more than -4.2.
In the case of GGAUCUUCUCGAUCUCACAUAAAAGACAAAUCUGCCACAUAGCUUGAGAGCAUUUUCUGCUGCAGAGGCGGCAGCCUUCGGUGGCGCGAUAGCGCCAACGUUCUCAACUAUGACACGCAAAACGCGUGCUCCGUUGAAUGGAGUUUAUCAUG, the “polymerase ribozyme fitness (log ratio)” value is -4.15.
With GGAUCUUCUCGAUCGAACAAAAAAGACAAAUCUGCUACAAAGCUUGCGAGCAUCUUCGGAUGCAGAGGCGGCAGCCUUCGGUGGCGCGAUAGCGCGAACGUUCUCAACUAUGACACGCAAAACGCGUGCUCCGUUGAAUGGAGCUUAUCAUG, the “polymerase ribozyme fitness (log ratio)” value is no more than -4.2.
GGAUCUUCUCGAUCUCACAACAAAGACAAAUCUGCCACAAAGCUUGAGCGCAUUUUCGGAUGCAGAGGCGGCAGCCUUCGGUGGCGCGAUAGCGCUAACGUUCUCAACUAUGACACGCAAAACGCGUGCUCCGUUGAAUGGAGUUUAUCAUG: the “polymerase ribozyme fitness (log ratio)” value was -4.18.
As to GGAUCUUCUCGAUCGAACAAAAAAGACAAAUCUGCCACAAAGCUUGAGAGCAUCUUCGAAUGCAGAGGCGGCAGCCUUCGGUGGCGCAAUAGCGCCAACGUUCUCAACUAUGACACGCAAAACGCGUGCUCUGUUGAAUGGAGUUUAUCAUG, the “polymerase ribozyme fitness (log ratio)” value is no more than -4.2.
On to GGAUCUUCUCGAUCUCACAAAAAAGACAAAUCUGCCACAAAGCUUGAGAGCAUCUUCGGAUGCAGAGGCGGCAGCCUUCGGUGGCGCGAUAGCGCCAACGUUCUCAACUAUGACACGCAAAACGCGUGCUCCGUUGAAUGGAGUUUAUCAUG, for which the “polymerase ribozyme fitness (log ratio)” value is -1.01.
